Source: article PMC4954676

What was measured:
[1] = target: human thrombin (human)
[2] = target: rat thrombin (rat)

| KM of cleavage of the peptide by thrombin (fluorescence polarisation cleavage assay, Michaelis-Menten fit) [1] [µM] | fold reduction of kcat/KM of cleavage by thrombin, truncated FpA peptide against the full length peptide [1] [fold] | kcat of cleavage of the peptide by thrombin (fluorescence polarisation cleavage assay, Michaelis-Menten fit) [1] [s⁻¹] | fold reduction of kcat/KM of cleavage by rat thrombin, truncated rat FpA peptide against the full-length rat FpA peptide [2] [fold] | kcat/KM of cleavage of the peptide by thrombin (fluorescence polarisation cleavage assay, Michaelis-Menten fit) [1] [M⁻¹ s⁻¹] | Substance |
| --- | --- | --- | --- | --- | --- |
| 630 | 490 | 0.25 |  |  | synthetic peptide containing NEP-truncated human FpA and the first four residues of the main α-chain |
|  |  |  | 5.7 |  | synthetic peptide containing NEP-truncated rat FpA and the first four residues of the main α-chain |
| 51 |  | 9.1 |  | 180000 | synthetic peptide containing full-length human FpA and the first four residues of the main α-chain |
